Patent publication US7732568B2, “Methods for preventing and treating Alzheimer's disease” (AFFIRIS Forschungs-und Entwicklungs GmbH, priority 2003, dated 2010)

Tests used:
[1] = target: DAEFRH-specific monoclonal antibody (mAb) produced according to example 1; experiment: competition ELISA: soluble peptide vs plate-bound DAEFRH-C-BSA for biotinylated mAb, FIG. 3
[2] = target: DAEFRH-specific monoclonal antibody (mAb) produced according to example 1; experiment: competition ELISA: soluble peptide vs plate-bound DAEFRH-C-BSA for biotinylated mAb, FIG. 2
[3] = target: DAEFRH-specific monoclonal antibody (mAb) produced according to example 1; experiment: competition ELISA: soluble peptide vs plate-bound DAEFRH-C-BSA for biotinylated mAb, FIG. 5
[4] = target: DAEFRH-specific monoclonal antibody (mAb) produced according to example 1; experiment: competition ELISA: soluble peptide vs plate-bound DAEFRH-C-BSA for biotinylated mAb, FIG. 4

IC50 [2]	IC50 [3]	Binder	also measured
		ELEFRGC [Peptide 3008 ELEFRG]	IC50 [1]: < 5 µg/mL
> 0.5 µg/mL		DWELRIC [Peptide 3002 DWELRI]	
	> 0.5 µg/mL	EYEFRGC [Peptide 1239 EYEFRG]	
		SFEFRGC [Peptide 3009 SFEFRG]	IC50 [1]: < 5 µg/mL
< 0.5 µg/mL		EAEFRGC [Peptide 3006 EAEFRG]	
> 0.5 µg/mL		YAEFRGC [Peptide 3005 YAEFRG]	
		SWEFRTC [Peptide 4002 SWEFRT]	IC50 [4]: < 0.4 µg/mL
< 0.5 µg/mL		DKELRIC [Peptide 3001 DKELRI]	
	> 5 µg/mL	DRELKIC [Peptide 1237 DRELKI]	
	> 5 µg/mL	DKELKIC [Peptide 1236 DKELKI]	
